Measured values from article PMC6251370.

Target: recombinant N-terminal SH3 domain (SH3N) of CRKL with a C-terminal hexahistidine tag (human)
Assay: dynamic mass redistribution

B1: peptide corresponding to the second PXXPXK motif of SASH1 (aa982–991) (peptide)
peptide: QPPPVPAKKS
- Kd: 7.38 µM
